From publication PMC12052454
Primed or numbered codes have the meaning given here. The star is where a group is joined. 5FAM = O=C1OC2(c3ccc(O)cc3Oc3cc(O)ccc32)c2ccc(C(=O)*)cc21; Dabcyl′ = CN(C)c1ccc(/N=N/c2ccc(C(=O)*)cc2)cc1

Target: ADAM9-P750L (rs144750648) (human) (UniProt Q13443)
Parameters: unit not given beside the values

Chain of UniProt Q13443 (Q13443 29-819 P750L): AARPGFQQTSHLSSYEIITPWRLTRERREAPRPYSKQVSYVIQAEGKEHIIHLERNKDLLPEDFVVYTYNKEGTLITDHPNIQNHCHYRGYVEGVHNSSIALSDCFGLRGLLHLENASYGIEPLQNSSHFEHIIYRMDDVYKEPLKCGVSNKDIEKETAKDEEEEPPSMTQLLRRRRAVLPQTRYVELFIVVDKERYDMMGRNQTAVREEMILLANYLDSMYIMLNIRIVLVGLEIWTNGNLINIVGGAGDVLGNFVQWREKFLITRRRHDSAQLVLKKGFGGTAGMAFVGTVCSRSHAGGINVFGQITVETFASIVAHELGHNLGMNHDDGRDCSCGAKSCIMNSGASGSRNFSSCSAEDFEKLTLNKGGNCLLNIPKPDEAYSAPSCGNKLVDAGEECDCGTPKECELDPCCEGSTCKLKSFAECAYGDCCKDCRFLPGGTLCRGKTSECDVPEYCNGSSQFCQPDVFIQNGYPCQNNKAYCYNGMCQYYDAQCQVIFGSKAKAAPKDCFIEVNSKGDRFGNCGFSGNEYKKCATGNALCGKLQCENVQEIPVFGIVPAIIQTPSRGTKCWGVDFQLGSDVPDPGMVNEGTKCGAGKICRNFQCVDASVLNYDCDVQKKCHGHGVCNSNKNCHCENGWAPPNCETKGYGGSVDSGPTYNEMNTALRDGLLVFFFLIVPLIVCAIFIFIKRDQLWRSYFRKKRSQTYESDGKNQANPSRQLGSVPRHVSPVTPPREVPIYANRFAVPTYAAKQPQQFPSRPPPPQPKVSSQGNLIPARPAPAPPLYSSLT

Km of cleavage of the fluorogenic substrate PEPDAB010 (Lineweaver-Burk plot, lysates of transfected HEK293 cells), reduction compared to ADAM9 WT (% reduction of Km compared to ADAM9 WT): 41.9
B1: ADAM9 fluorogenic substrate PEPDAB010 (Dabcyl-…[5-FAM]-NH2) (peptide)
peptide: {Dabcyl′}-SPLAQAVRSSK(5FAM)-NH2
SMILES: CC(C)C[C@H](NC(=O)[C@@H]1CCCN1C(=O)[C@H](CO)NC(=O)c1ccc(/N=N/c2ccc(N(C)C)cc2)cc1)C(=O)N[C@@H](C)C(=O)N[C@@H](CCC(N)=O)C(=O)N[C@@H](C)C(=O)N[C@H](C(=O)N[C@@H](CCCNC(=N)N)C(=O)N[C@@H](CO)C(=O)N[C@@H](CO)C(=O)N[C@@H](CCCCNC(=O)c1ccc2c(c1)C(=O)OC21c2ccc(O)cc2Oc2cc(O)ccc21)C(N)=O)C(C)C
